Legend:
[1] = target: T1, human PSMA (prostate specific membrane antigen), full length (human, UniProt Q04609 1-750); test: flow cytometry cell binding assay, bispecific antibody titrated on LNCaP cells (human PSMA)
T1 construct: On LNCaP or C4-2B cells (endogenous) or transduced HEK293F cells; also called FOLH1_HUMAN; hPSMA
Description: (§1) PSMA×CD3 bispecific antibodies were tested for binding to PSMA positive cell lines LNCAP, human PSMA-HEK, Chimpanzee-PSMA-HEK and Cynomolgous monkey PSMA-HEK. To assess the binding capabilities of the PSMA bispecific antibodies, the cell-binding assay was utilized (described previously). Briefly, PSMA expressing tumor cells are bound by bispecific antibodies at known concentrations and the bound antibody is detected by an anti-human kappa light chain PE conjugated detection reagent (Invitrogen). The Mean Fluorescents Intensity (MFI) is the measure of bound bispecific antibody. The MFI is converted to a relative EC₅₀. EC₅₀ is a commonly used dose-response curve, where the half maximal effective concentration or the EC₅₀ point is defined as the inflection point of the curve. EC₅₀ s were determined by measuring cell bound bispecific and known concentrations. […] The dose response curves were then diluted down to that of background or no bispecific binding. The inflection point of this curve reflects the EC₅₀ point. The calculated EC₅₀ is determined by taking the ug/ml amount of bispecific antibody at the EC₅₀ point and converting it to a molarity value based on the MW of the bispecific antibody. Bispecific antibodies were normalized for protein concentration and then incubated with the same number of cells expressing either human or cyno PSMA. […]

[2] = target: T1, human PSMA (prostate specific membrane …); test: cell-based or functional assay
[3] = target: T1, human PSMA (prostate specific membrane …); test: FACS, whole cell binding
[4] = target: T2, Cynomolgous monkey PSMA, full length (Macaca fascicularis, UniProt Q04609 1-750 (human entry)); test: FACS, whole cell binding
T2 construct: On transfected HEK293F cells; also called cyno PSMA; EHH56646.1
T2 chain: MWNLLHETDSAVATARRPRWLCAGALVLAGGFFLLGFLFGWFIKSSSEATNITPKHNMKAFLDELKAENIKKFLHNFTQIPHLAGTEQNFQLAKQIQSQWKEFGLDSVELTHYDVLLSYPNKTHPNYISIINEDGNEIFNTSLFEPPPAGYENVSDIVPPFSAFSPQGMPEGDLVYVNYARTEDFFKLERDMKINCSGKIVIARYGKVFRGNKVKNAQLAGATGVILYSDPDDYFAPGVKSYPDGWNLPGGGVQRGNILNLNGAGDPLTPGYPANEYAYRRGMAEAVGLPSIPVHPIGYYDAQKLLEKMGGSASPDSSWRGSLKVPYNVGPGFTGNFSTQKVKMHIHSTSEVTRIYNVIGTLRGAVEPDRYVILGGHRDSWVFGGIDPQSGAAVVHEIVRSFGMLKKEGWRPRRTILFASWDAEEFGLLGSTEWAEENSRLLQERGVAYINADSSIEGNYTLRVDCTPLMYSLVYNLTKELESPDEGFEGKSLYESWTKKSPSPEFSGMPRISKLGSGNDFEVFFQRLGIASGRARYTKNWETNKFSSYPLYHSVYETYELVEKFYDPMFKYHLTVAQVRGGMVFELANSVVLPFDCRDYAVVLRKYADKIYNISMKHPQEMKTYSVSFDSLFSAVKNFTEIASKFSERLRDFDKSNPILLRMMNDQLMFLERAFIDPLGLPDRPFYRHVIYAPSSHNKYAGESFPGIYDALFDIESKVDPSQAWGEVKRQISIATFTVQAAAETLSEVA

[5] = target: T3, chimpanzee PSMA, full length (Pan troglodytes, UniProt Q04609 1-750 (human entry)); test: flow cytometry, bispecific antibody titrated on chimp PSMA (PSMG9) HEK cells, anti-human kappa light chain PE
T3 construct: On transfected HEK293F cells; also called chimp PSMA; H2Q3K5_PANTR
T3 chain: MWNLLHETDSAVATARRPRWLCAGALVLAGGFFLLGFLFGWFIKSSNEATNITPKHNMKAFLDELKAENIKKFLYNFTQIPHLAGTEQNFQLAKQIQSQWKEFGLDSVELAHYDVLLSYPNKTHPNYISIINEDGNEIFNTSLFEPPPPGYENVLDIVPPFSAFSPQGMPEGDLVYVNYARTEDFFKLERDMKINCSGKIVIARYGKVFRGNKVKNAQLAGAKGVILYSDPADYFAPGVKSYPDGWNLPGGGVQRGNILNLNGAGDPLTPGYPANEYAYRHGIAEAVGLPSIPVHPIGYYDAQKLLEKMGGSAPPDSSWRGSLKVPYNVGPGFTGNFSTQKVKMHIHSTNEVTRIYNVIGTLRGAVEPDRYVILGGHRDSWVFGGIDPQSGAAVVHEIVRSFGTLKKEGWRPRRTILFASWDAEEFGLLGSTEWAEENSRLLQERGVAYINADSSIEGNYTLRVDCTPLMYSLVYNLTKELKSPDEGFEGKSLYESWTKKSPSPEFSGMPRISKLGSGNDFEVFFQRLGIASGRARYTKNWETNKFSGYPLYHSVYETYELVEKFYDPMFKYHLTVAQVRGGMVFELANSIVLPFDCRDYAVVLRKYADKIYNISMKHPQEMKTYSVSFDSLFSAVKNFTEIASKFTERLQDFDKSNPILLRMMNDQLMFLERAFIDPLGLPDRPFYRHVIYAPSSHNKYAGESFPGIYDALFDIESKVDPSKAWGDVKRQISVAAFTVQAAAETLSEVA
Description: as §1

[6] = target: T2, Cynomolgous monkey PSMA, full length; test: flow cytometry, bispecific antibody titrated on cyno PSMA (PSMG5) HEK cells, anti-human kappa light chain PE
Description: as §1

B1: PS3B27 (bispecific antibody, human IgG4 S228P, kappa, lambda, F234A L235A)
heavy 1: not shown
light 1: not shown
heavy 2: EVQLVESGGGLVQPGGSLRLSCAASGFTFNTYAMNWVRQAPGKGLEWVARIRSKYNNYATYYAASVKGRFTISRDDSKNSLYLQMNSLKTEDTAVYYCARHGNFGNSYVSWFAYWGQGTLVTVSSASTKGPSVFPLAPCSRSTSESTAALGCLVKDYFPEPVTVSWNSGALTSGVHTFPAVLQSSGLYSLSSVVTVPSSSLGTKTYTCNVDHKPSNTKVDKRVESKYGPPCPPCPAPEAAGGPSVFLFPPKPKDTLMISRTPEVTCVVVDVSQEDPEVQFNWYVDGVEVHNAKTKPREEQFNSTYRVVSVLTVLHQDWLNGKEYKCKVSNKGLPSSIEKTISKAKGQPREPQVYTLPPSQEEMTKNQVSLTCLVKGFYPSDIAVEWESNGQPENNYKTTPPVLDSDGSFLLYSKLTVDKSRWQEGNVFSCSVMHEALHNHYTQKSLSLSLGK
light 2: QTVVTQEPSLTVSPGGTVTLTCRSSTGAVTTSNYANWVQQKPGQAPRGLIGGTNKRAPGTPARFSGSLLGGKAALTLSGVQPEDEAEYYCALWYSNLWVFGGGTKLTVLGQPKAAPSVTLFPPSSEELQANKATLVCLISDFYPGAVTVAWKADSSPVKAGVETTTPSKQSNNKYAASSYLSLTPEQWKSHRSYSCQVTHEGSTVEKTVAPTECS
notes: IgG4 PAA; PSMA arm chains first, then CD3 arm (F405L, R409K); also called PSMB127 x CD3B219; PS2B27
For B1, the “EC50 (read off the curve)” value [1] was about 7 nM, the “EC50, T-cell dependent cytotoxicity (caspase 3/7), C-42B, donor M2550” value [2] was 0.11 nM and the “EC50, T-cell dependent cytotoxicity (caspase 3/7), C-42B, donor M5524” value [2] was 0.06 nM. For the same binder, the “EC50, T-cell dependent cytotoxicity (caspase 3/7), C-42B, donor M5772” value [2] was 0.03 nM, the “EC50, T-cell dependent cytotoxicity (caspase 3/7), C-42B, donor M7259” value [2] was 0.06 nM and the “EC50, T-cell dependent cytotoxicity (caspase 3/7), C-42B, donor M7444” value [2] was 0.05 nM. For the same binder, the “EC50, T-cell dependent cytotoxicity (caspase 3/7), LNCaP FGc, donor M2550” value [2] was 0.27 nM, the “EC50, T-cell dependent cytotoxicity (caspase 3/7), LNCaP FGc, donor M5524” value [2] was 0.09 nM and the “EC50, T-cell dependent cytotoxicity (caspase 3/7), LNCaP FGc, donor M5772” value [2] was 0.04 nM. The “EC50, T-cell dependent cytotoxicity (caspase 3/7), LNCaP FGc, donor M7259” value [2] was 0.05 nM and the “EC50, T-cell dependent cytotoxicity (caspase 3/7), LNCaP FGc, donor M7444” value [2] was 0.09 nM.

B2: PS3B30 (bispecific antibody, human IgG4 S228P, kappa, lambda, F234A L235A)
heavy 1: not shown
light 1: not shown
heavy 2: B1 heavy 2
light 2: B1 light 2
notes: IgG4 PAA; PSMA arm chains first, then CD3 arm (F405L, R409K); also called PSMB130 x CD3B219
For B2, the EC50 [3] was 8 to 8.5 nM and the EC50 [4] was 37.8 to 57 nM.

B3: PS3B25 (bispecific antibody, human IgG4 S228P, kappa, lambda, F234A L235A)
heavy 1: not shown
light 1: not shown
heavy 2: B1 heavy 2
light 2: B1 light 2
notes: IgG4 PAA; also called PSMB87 x CD3B219
B3: binds [5]; binds [6].

From US20200024360A1 (Janssen / Centocor, published 2020)
